# ± gives the uncertainty stated by the source.
# Assay: abundance fitness (aPCA) (normalised: wild type 0, dead -1); higher = more abundant; growth selection in yeast, the domain comes from the species named
# Conditions: Homo sapiens
row,Substance,abundance fitness
1,"Heterogeneous nuclear ribonucleoprotein U-like protein 2 A30M, Q1KMD3",0.067 ± 0.084
2,"Heterogeneous nuclear ribonucleoprotein U-like protein 2 A39E, Q1KMD3",-0.015 ± 0.064
3,"Heterogeneous nuclear ribonucleoprotein U-like protein 2 D21S, Q1KMD3",-0.165 ± 0.066
4,"Heterogeneous nuclear ribonucleoprotein U-like protein 2 E35A, Q1KMD3",0.036 ± 0.052
5,"Heterogeneous nuclear ribonucleoprotein U-like protein 2 Q16K, Q1KMD3",0.049 ± 0.092
6,"Heterogeneous nuclear ribonucleoprotein U-like protein 2 Q31D, Q1KMD3",-0.194 ± 0.11
7,"Heterogeneous nuclear ribonucleoprotein U-like protein 2 S13D, Q1KMD3",0.114 ± 0.067
8,"Heterogeneous nuclear ribonucleoprotein U-like protein 2 S22D, Q1KMD3",0.187 ± 0.09
9,"Heterogeneous nuclear ribonucleoprotein U-like protein 2 V27A, Q1KMD3",0.131 ± 0.053
10,"NEDD4-like E3 ubiquitin-protein ligase WWP2 A445C, O00308",0.056 ± 0.03
11,"NEDD4-like E3 ubiquitin-protein ligase WWP2 A445D, O00308",0.121 ± 0.078
12,"NEDD4-like E3 ubiquitin-protein ligase WWP2 A445E, O00308",0.025 ± 0.05
13,"NEDD4-like E3 ubiquitin-protein ligase WWP2 A445F, O00308",0.007 ± 0.035
14,"NEDD4-like E3 ubiquitin-protein ligase WWP2 A445H, O00308",0.069 ± 0.081
15,"NEDD4-like E3 ubiquitin-protein ligase WWP2 A445I, O00308",-0.016 ± 0.049
16,"NEDD4-like E3 ubiquitin-protein ligase WWP2 A445K, O00308",-0.01 ± 0.074
17,"NEDD4-like E3 ubiquitin-protein ligase WWP2 A445L, O00308",0 ± 0.039
18,"NEDD4-like E3 ubiquitin-protein ligase WWP2 A445M, O00308",-0.073 ± 0.052
19,"NEDD4-like E3 ubiquitin-protein ligase WWP2 A445N, O00308",0.103 ± 0.073
20,"NEDD4-like E3 ubiquitin-protein ligase WWP2 A445P, O00308",-0.14 ± 0.07
21,"NEDD4-like E3 ubiquitin-protein ligase WWP2 A445Q, O00308",0.031 ± 0.049
22,"NEDD4-like E3 ubiquitin-protein ligase WWP2 A445R, O00308",0.077 ± 0.039

row,Substance,abundance fitness
1,"NEDD4-like E3 ubiquitin-protein ligase WWP2 A445S, O00308",0.04 ± 0.048
2,"NEDD4-like E3 ubiquitin-protein ligase WWP2 A445T, O00308",-0.211 ± 0.073
3,"NEDD4-like E3 ubiquitin-protein ligase WWP2 A445V, O00308",-0.001 ± 0.06
4,"NEDD4-like E3 ubiquitin-protein ligase WWP2 A445W, O00308",-0.074 ± 0.062
5,"NEDD4-like E3 ubiquitin-protein ligase WWP2 A445Y, O00308",-0.002 ± 0.048
6,"NEDD4-like E3 ubiquitin-protein ligase WWP2 A490C, O00308",-0.01 ± 0.051
7,"NEDD4-like E3 ubiquitin-protein ligase WWP2 A490D, O00308",0.001 ± 0.061
8,"NEDD4-like E3 ubiquitin-protein ligase WWP2 A490E, O00308",0.024 ± 0.062
9,"NEDD4-like E3 ubiquitin-protein ligase WWP2 A490F, O00308",-0.081 ± 0.051
10,"NEDD4-like E3 ubiquitin-protein ligase WWP2 A490G, O00308",-0.007 ± 0.039
11,"NEDD4-like E3 ubiquitin-protein ligase WWP2 A490H, O00308",-0.316 ± 0.078
12,"NEDD4-like E3 ubiquitin-protein ligase WWP2 A490I, O00308",0.089 ± 0.077
13,"NEDD4-like E3 ubiquitin-protein ligase WWP2 A490K, O00308",0.007 ± 0.037
14,"NEDD4-like E3 ubiquitin-protein ligase WWP2 A490L, O00308",-0.047 ± 0.037
15,"NEDD4-like E3 ubiquitin-protein ligase WWP2 A490M, O00308",0.033 ± 0.053
16,"NEDD4-like E3 ubiquitin-protein ligase WWP2 A490N, O00308",-0.195 ± 0.082
17,"NEDD4-like E3 ubiquitin-protein ligase WWP2 A490P, O00308",-0.128 ± 0.065
18,"NEDD4-like E3 ubiquitin-protein ligase WWP2 A490Q, O00308",0.029 ± 0.069
19,"NEDD4-like E3 ubiquitin-protein ligase WWP2 A490R, O00308",-0.047 ± 0.035
20,"NEDD4-like E3 ubiquitin-protein ligase WWP2 A490S, O00308",-0.013 ± 0.048
21,"NEDD4-like E3 ubiquitin-protein ligase WWP2 A490V, O00308",-0.05 ± 0.032
22,"NEDD4-like E3 ubiquitin-protein ligase WWP2 A490W, O00308",-0.185 ± 0.046

row,Substance,abundance fitness
1,"NEDD4-like E3 ubiquitin-protein ligase WWP2 A490Y, O00308",-0.09 ± 0.061
2,"NEDD4-like E3 ubiquitin-protein ligase WWP2 D464A, O00308",-0.797 ± 0.036
3,"NEDD4-like E3 ubiquitin-protein ligase WWP2 D464C, O00308",-0.438 ± 0.074
4,"NEDD4-like E3 ubiquitin-protein ligase WWP2 D464E, O00308",-0.372 ± 0.047
5,"NEDD4-like E3 ubiquitin-protein ligase WWP2 D464F, O00308",-0.903 ± 0.12
6,"NEDD4-like E3 ubiquitin-protein ligase WWP2 D464I, O00308",-1.28 ± 0.14
7,"NEDD4-like E3 ubiquitin-protein ligase WWP2 D464K, O00308",-0.972 ± 0.11
8,"NEDD4-like E3 ubiquitin-protein ligase WWP2 D464N, O00308",-0.138 ± 0.073
9,"NEDD4-like E3 ubiquitin-protein ligase WWP2 D464P, O00308",-0.921 ± 0.15
10,"NEDD4-like E3 ubiquitin-protein ligase WWP2 D464Q, O00308",-0.508 ± 0.075
11,"NEDD4-like E3 ubiquitin-protein ligase WWP2 D464R, O00308",-0.94 ± 0.041
12,"NEDD4-like E3 ubiquitin-protein ligase WWP2 D464S, O00308",-0.565 ± 0.056
13,"NEDD4-like E3 ubiquitin-protein ligase WWP2 D464V, O00308",-1.03 ± 0.061
14,"NEDD4-like E3 ubiquitin-protein ligase WWP2 D464W, O00308",-1.21 ± 0.14
15,"NEDD4-like E3 ubiquitin-protein ligase WWP2 D464Y, O00308",-0.693 ± 0.12
16,"NEDD4-like E3 ubiquitin-protein ligase WWP2 D474A, O00308",-0.168 ± 0.037
17,"NEDD4-like E3 ubiquitin-protein ligase WWP2 D474C, O00308",-0.288 ± 0.057
18,"NEDD4-like E3 ubiquitin-protein ligase WWP2 D474E, O00308",-0.192 ± 0.074
19,"NEDD4-like E3 ubiquitin-protein ligase WWP2 D474F, O00308",-0.376 ± 0.086
20,"NEDD4-like E3 ubiquitin-protein ligase WWP2 D474H, O00308",-0.095 ± 0.097
21,"NEDD4-like E3 ubiquitin-protein ligase WWP2 D474I, O00308",-0.069 ± 0.092
22,"NEDD4-like E3 ubiquitin-protein ligase WWP2 D474K, O00308",-0.505 ± 0.14

row,Substance,abundance fitness
1,"NEDD4-like E3 ubiquitin-protein ligase WWP2 D474L, O00308",-0.326 ± 0.061
2,"NEDD4-like E3 ubiquitin-protein ligase WWP2 D474M, O00308",-0.224 ± 0.063
3,"NEDD4-like E3 ubiquitin-protein ligase WWP2 D474N, O00308",-0.332 ± 0.065
4,"NEDD4-like E3 ubiquitin-protein ligase WWP2 D474P, O00308",-0.332 ± 0.085
5,"NEDD4-like E3 ubiquitin-protein ligase WWP2 D474Q, O00308",-0.279 ± 0.073
6,"NEDD4-like E3 ubiquitin-protein ligase WWP2 D474R, O00308",-0.19 ± 0.039
7,"NEDD4-like E3 ubiquitin-protein ligase WWP2 D474S, O00308",-0.406 ± 0.061
8,"NEDD4-like E3 ubiquitin-protein ligase WWP2 D474T, O00308",-0.442 ± 0.079
9,"NEDD4-like E3 ubiquitin-protein ligase WWP2 D474V, O00308",-0.387 ± 0.067
10,"NEDD4-like E3 ubiquitin-protein ligase WWP2 D474W, O00308",-0.253 ± 0.048
11,"NEDD4-like E3 ubiquitin-protein ligase WWP2 D474Y, O00308",-0.251 ± 0.097
12,"NEDD4-like E3 ubiquitin-protein ligase WWP2 D492A, O00308",-0.174 ± 0.054
13,"NEDD4-like E3 ubiquitin-protein ligase WWP2 D492C, O00308",-0.146 ± 0.061
14,"NEDD4-like E3 ubiquitin-protein ligase WWP2 D492E, O00308",0.039 ± 0.065
15,"NEDD4-like E3 ubiquitin-protein ligase WWP2 D492F, O00308",-0.217 ± 0.044
16,"NEDD4-like E3 ubiquitin-protein ligase WWP2 D492G, O00308",-0.158 ± 0.051
17,"NEDD4-like E3 ubiquitin-protein ligase WWP2 D492I, O00308",-0.212 ± 0.057
18,"NEDD4-like E3 ubiquitin-protein ligase WWP2 D492K, O00308",0.029 ± 0.074
19,"NEDD4-like E3 ubiquitin-protein ligase WWP2 D492L, O00308",-0.149 ± 0.061
20,"NEDD4-like E3 ubiquitin-protein ligase WWP2 D492N, O00308",-0.137 ± 0.069
21,"NEDD4-like E3 ubiquitin-protein ligase WWP2 D492P, O00308",-0.249 ± 0.076

# — the Human Domainome abundance scans (Beltran et al. 2025)
